Measured values: article PMC2676118
Where two headings read alike, the source gives them in different places.

Columns and labels:
Experiment in all cases: AUC
[1] = target: FGF9^Eks, purified recombinant FGF9 with the Eks mutation N143T (UniProt P54130)
[2] = target: FGF9^WT, purified recombinant wild type FGF9 (UniProt P54130)
[3] = target: FGF9^WT, purified recombinant wild type FGF9 (UniProt P54130); remark: listed apart in the source

Substance	Ka [1]	stoichiometry N [1]	stoichiometry N [2]	Ka [3]	stoichiometry N [3]
FGF9^Eks, purified recombinant FGF9 with the Eks mutation N143T (from UniProt P54130 4-208) (natural protein)	119000 M⁻¹	2			
FGF9^WT, purified recombinant wild type FGF9 (from UniProt P54130 4-208) (natural protein)			2	1.04e+07 M⁻¹	2
